Experiment: yeast display, Sf9 membrane polyspecificity reagent, FACS + sequencing; frameworks hold sequencing errors
Outline: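 Polyreactivity labels are assigned by the sorting gate from which each nanobody was recovered. The gates were low and high (top ~1%), set on anti-HA fluorescence for expression and streptavidin fluorescence for reagent binding. Before sorting, galactose-induced (36–48 hours) yeast display cells were stained for 1 hour at 4 °C with 10% biotinylated, detergent-solubilized Sf9 membrane reagent.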

Sequence | polyreactivity (PSR sort gate)
QVQLVESGGGLVQAGGSLRLSCAASGSTFYSYAMGWYRQAPGKERELVAAISWRGGTTYYADSVKGRFTISRDNAKNTVYLQMNSLKPEDTAVYYCNARFYRWRSYGYDYWGQGTQVTVSS | high polyreactivity
QVQLVESGGGLVQAGGSLRLSCAASGSTFYSYAMGWYRQAPGKERELVAAITSRGDRTYYADSVKGRFTISRDNAKNTVYLQMNSLKPEDTAVYYCAAEQSWQGYAYYYWGQGTQVTVSS | high polyreactivity
QVQLVESGGGLVQAGGSLRLSCAASGSTFYTNAMGWYRPAPGKEREFVAAISWSGSSTYADSVKGRFTISRDNAKNTVYLQMNSLKPEDTAVYYCAADWFKLRTDYYWGQGTQVTVSS | low polyreactivity
QVQLVESGGGLVQAGGSLRLSCAASGSTFYTNAMGWYRQAPGKERELVAAINRSGGRSYYADSVKGRFTISRDNAKNTVYLQMNSLKQEDTAVYYCAARYPLRISTDTARDYYWGQGTQVTVSS | low polyreactivity
QVQLVESGGGLVQAGGSLRLSCAASGSTFYTNDMGWYRQAPGKERELVAAITSSGNTNYADSVKGRFTISRDNAKNTVFLQMNCLKPEDTAVYYYYYYQYDYWGQGTQVTVSS | low polyreactivity
QVQLVESGGGLVQAGGSLRLSCAASGSTFYTYAMGWYRQAPGKEMELVADITRGGSTYYADSVKGRFTISRDNAKNTVYLQMNSLKPEDTAVYYCAADYTWLSFFEFDYWGQGTQVTVSS | high polyreactivity
QVQLVESGGGLVQAGGSLRLSCAASGSTFYTYAMGWYRQAPGKERELVAAISYRGGSTYYADSVKGRFTISRDNAKNTVYLQMNSLKPEDTSVYYCKVDGVVVGTKRGGYDYWGQGTQVTVSS | low polyreactivity
QVQLVESGGGLVQAGGSLRLSCAASGSTFYTYAMGWYRQAPGKERELVAAITFSGDSKYYADSVKGRFTISRDNAKNTVYLQMNSLKPEDTAVYYCAALQKRYYRSWVGYDYWGQGTQVTVSS | high polyreactivity
QVQLVESGGGLVQAGGSLRLSCAASGSTFYTYAMGWYRQAPGKERELVARIRWSVGSTYYADSVKGRFTISRDNAKNTVYLQMNSLKPEDTAVYYCAADYYKRYKYLYDYWGQGTQVTVSS | high polyreactivity
QVQLVESGGGLVQAGGSLRLSCAASGSTFYTYDMGWYRQAPGKERELVAAISRRDGITYYADSVKGRFTISRDYATNTVYLQMNSLNPEDSAVYYCAAEDAYRYYDFDYWGQGTQVTVSS | low polyreactivity
QVQLVESGGGLVQAGGSLRLSCAASGSTFYTYPMGWYRQAPGKERELVAAISYRGGSTYYADSVKGRFTISRDTAKNTVYLQMNSMKPEDSAVYYCNVVGVVVGTKRGGYDYWGQGTHVTVSS | low polyreactivity
QVQLVESGGGLVQAGGSLRLSCAASGSTFYVNAMGWYRQAPGKERELVAAITSGGSTKYADSVKGRYTISCDNAKNTVYLQMNSLKPEDTAVDDCAAPRGRALSKVRYDDEYWGQGTQVTVSS | high polyreactivity
QVQLVESGGGLVQAGGSLRLSCAASGSTFYVNAMGWYRQTPGKEREFVAAITWNSGSTYYADSVKGRFTISRDNEKNTVYLQMNSLKPEDTAVYYCAAVLSVRVYGYDYWGQGTQVTVSS | low polyreactivity
QVQLVESGGGLVQAGGSLRLSCAASGSTFYVNAMGWYSQAPGKEREFVAAITWNSGSTYYADSVKGRFTISRDNAKNTVYLQMNSLKPEDTAVYYCAAVLSVRVYGYDYWGQGTQVTVSS | low polyreactivity
QVQLVESGGGLVQAGGSLRLSCAASGSTFYVNVMGWYRQAPGKERELVAGITIRDGSTYYADSVKGRFTISRDNAKNTVYLQMNSLKPEDTAVYYCARAGDGEYKRDYWGQGTQVTVSS | low polyreactivity
QVQLVESGGGLVQAGGSLRLSCAASGSTFYVYAMGWYRPAPGKERELVATISSSGAITYYADSVKGRFTISGDNAKNTVYLQMNSLKPEDTAVYYCARTGSLLSQVWYNYWGQGTQVTVSS | low polyreactivity

Sequence | polyreactivity (PSR sort gate)
QVQLVESGGGLVQAGGSLRLSCAASGSTFYVYAMGWYRQAPGKERELVAAISKRGGTTYYADSVKGRFTISRDNAKNTVYLQMNSLKPEDTAVYYCATVSSSRDHDYWGQGTQVTVSS | high polyreactivity
QVQLVESGGGLVQAGGSLRLSCAASGSTFYVYAMGWYRQAPGKERELVAAITVRGGSTYYADSVKGRFTISRDNAKKTVYLQMNSLKPEDTAVYYCNAEGTYGYWRSYNYWGQGTQVTVSS | high polyreactivity
QVQLVESGGGLVQAGGSLRLSCAASGSTFYVYAMGWYRQAPGKERELVAGITDSGGSTYADSVKGRFTISRDNAKNTVYLQMNSLKPEVTAVYYCAADGETLTPRILGESEGDYWGQGTQVTVSS | low polyreactivity
QVQLVESGGGLVQAGGSLRLSCAASGSTFYVYVMGWYRQAPGKERELVAVIDWRGGSTYYADSVKGRFTISRDNAKNTVYLQMNSLKPEDTAVYYCNKDAQFYYKLPYYKERDWGQGTQVTVSS | low polyreactivity
QVQLVESGGGLVQAGGSLRLSCAASGSTFYWYAMGWYRQAPGKERELVAAITSTGGSTYADSVKGRFTISRDNAKNTVYFQMNSLKPEDTAVYYWNVDTSSPSRRDYDYWGQGTQVTVSS | low polyreactivity
QVQLVESGGGLVQAGGSLRLSCAASGSTFYWYAMGWYRQAPGKERQLVAAITRNAGSTYYADTVKGRFTISRDNAKNTVYVQMNSLKPEDTAVSYCAADGARSAFLLAYYYWGQGTQVTGSS | low polyreactivity
QVQLVESGGGLVQAGGSLRLSCAASGSTFYYHGRGWSRQAPGKERELVAVISISGGSTYYADSVKGSFTISRDNAKNTVDLQMNSLKPEDTAVYYCATSYVGRSAYRSYGARGGYWGQGTQVTVSS | low polyreactivity
QVQLVESGGGLVQAGGSLRLSCAASGSTFYYNAMGCYRQAPGKERELVAAISSDGSTNYADSVKGRFTISRDNAKNTVYLQMNSLKPEDTAVYYCAAENIVYVRSNWYWGYDYWGQGTQVTVSS | low polyreactivity
QVQLVESGGGLVQAGGSLRLSCAASGSTFYYNAMGWYRQAPGKEREFVASISWRGGRTYYADSVKGRFTISRDNAKNTVYLQMNSLKPEDTAVYYCAKGYLALGQPDDYWGQGTQVTVSS | high polyreactivity
QVQLVESGGGLVQAGGSLRLSCAASGSTFYYNAMGWYRQAPGKERELVAAISKRGGTTSYADSVKGRFTISRDNAKNTVFLQMNSLKPEDTAVYYCAAQTYLRQFYRYDWGQGTQVTVSS | high polyreactivity
QVQLVESGGGLVQAGGSLRLSCAASGSTFYYNAMGWYRQAPGKERELVARISRSGGSTYADSVKGRFTISRDNAKNTVYLQMNSLIPEDTAVYYCNADAYGTPEFTSYAVRYDYWGQGTQVTVSS | low polyreactivity
QVQLVESGGGLVQAGGSLRLSCAASGSTFYYNAMGWYRQAPGKERELVASISRSGGSTYADSVKGRFTISRDNAKNTVYLQMNSLKPVDTAVYYCNADAYGTPEFTSYAVRYDYWGQGTQVTVSS | low polyreactivity
QVQLVESGGGLVQAGGSLRLSCAASGSTFYYNSMGWYRQAPGKERELVARISRSGGSTYADSVKGRFTISRDNAKNTVYLQMNSLKPEDTAVYYCAKDYAPSATKLHYWGQGTQVTVSS | low polyreactivity
QVQLVESGGGLVQAGGSLRLSCAASGSTFYYNVMGWYRQAPGKERELVAAISNAGTTNYADSVKGRFTISRDNAKNTVYLQMNSLKPEDTAVYYCNAEFIGPEGYWWYIEYYYWGQGTQVTVSS | low polyreactivity
QVQLVESGGGLVQAGGSLRLSCAASGSTFYYYAMGGYRQAPGKERELVAAISISDNSTYYADSVKGRFTSSRDNAKNTVYLQMNSLKPEDTAVYYCAAYGWYAHDDSTYDYWGQGTQVTVSS | low polyreactivity
